Source: patent publication US20250171562A1 (ALK ABELL, published 2025)
Residue numbers refer to the chain shown, from its start. Names and notes keep the numbering of the source. Values belong to the binder of their own block, whether it stands above or below them.

Target: T1, recombinant human IgE (human, UniProt P01854-1 1-428)
T1 construct: made in-house (ALK); preloaded on immobilised FcεRIα in the displacement ELISA
Experiment: IgE-FcεRIα displacement ELISA
Outline: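 Streptavidin-coated plates carried site-specifically biotinylated recombinant human FcεRIα, loaded with recombinant human IgE at 13 ng/ml. sdAbs in a pM–μM series were added for 1 h, and displaced IgE was washed off. Percent displacement was the signal reduction versus the no-sdAb control, giving EC50 and maximal effect.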

T1 sequence (P01854 other isoform, or with tags, fused parts or gaps): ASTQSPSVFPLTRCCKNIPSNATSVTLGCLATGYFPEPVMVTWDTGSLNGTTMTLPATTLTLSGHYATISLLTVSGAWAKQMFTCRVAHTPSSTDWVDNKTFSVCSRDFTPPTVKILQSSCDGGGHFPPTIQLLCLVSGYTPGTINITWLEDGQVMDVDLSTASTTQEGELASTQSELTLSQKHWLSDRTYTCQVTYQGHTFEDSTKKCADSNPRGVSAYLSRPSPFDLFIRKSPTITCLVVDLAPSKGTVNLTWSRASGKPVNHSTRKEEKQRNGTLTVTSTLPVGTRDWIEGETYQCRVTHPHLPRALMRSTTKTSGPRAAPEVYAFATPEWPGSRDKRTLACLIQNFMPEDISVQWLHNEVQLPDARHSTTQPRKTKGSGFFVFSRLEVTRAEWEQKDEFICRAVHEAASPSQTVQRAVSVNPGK

B1: CIgG4F1A1(G4S)1 (Fc fusion)
chain 1: GPPCPPCPAPEFLGGPSVFLFPPKPKDTLMISRTPEVTCVVVDVSQEDPEVQFNWYVDGVEVHNAKTKPREEQFNSTYRVVSVLTVLHQDWLNGKEYKCKVSNKGLPSSIEKTISKAKGQPREPQVYTLPPCQEEMTKNQVSLWCLVKGFYPSDIAVEWESNGQPENNYKTTPPVLDSDGSFFLYSRLTVDKSRWQEGNVFSCSVMHEALHNHYTQKSLSLSLGKGGGGSDVQLQESGGGLVQAGGSLKLSCAASGGSLSRYDMGWFRQAPGKEREFVARISWSGTTKYYADAVKGRFAISRDNAKNTVYLQMNSLKPEDTAVYYCAAAFYGNRGYYDVNAYTSSGQGTQVTVS
chain 2: GPPCPPCPAPEFLGGPSVFLFPPKPKDTLMISRTPEVTCVVVDVSQEDPEVQFNWYVDGVEVHNAKTKPREEQFNSTYRVVSVLTVLHQDWLNGKEYKCKVSNKGLPSSIEKTISKAKGQPREPQVCTLPPSQEEMTKNQVSLSCAVKGFYPSDIAVEWESNGQPENNYKTTPPVLDSDGSFFLVSRLTVDKSRWQEGNVFSCSVMHEALHNHYTQKSLSLSLGKGGGGSEVQLLESGGGLVQPGGSLRLSCAASGFTFGNYDMAWVRQAPGKRPEWVSSIDTGGDITHYADSVKGRFTISRDNAKNTLYLQMNSLRPEDTAVYWCATDEEYALGPNEFDYYGQGTLVTVSS
Max effect: 30%

B3: CIgG4F1A1(G4S)2 (Fc fusion)
chain 1: GPPCPPCPAPEFLGGPSVFLFPPKPKDTLMISRTPEVTCVVVDVSQEDPEVQFNWYVDGVEVHNAKTKPREEQFNSTYRVVSVLTVLHQDWLNGKEYKCKVSNKGLPSSIEKTISKAKGQPREPQVYTLPPCQEEMTKNQVSLWCLVKGFYPSDIAVEWESNGQPENNYKTTPPVLDSDGSFFLYSRLTVDKSRWQEGNVFSCSVMHEALHNHYTQKSLSLSLGKGGGGSGGGGSDVQLQESGGGLVQAGGSLKLSCAASGGSLSRYDMGWFRQAPGKEREFVARISWSGTTKYYADAVKGRFAISRDNAKNTVYLQMNSLKPEDTAVYYCAAAFYGNRGYYDVNAYTSSGQGTQVTVS
chain 2: GPPCPPCPAPEFLGGPSVFLFPPKPKDTLMISRTPEVTCVVVDVSQEDPEVQFNWYVDGVEVHNAKTKPREEQFNSTYRVVSVLTVLHQDWLNGKEYKCKVSNKGLPSSIEKTISKAKGQPREPQVCTLPPSQEEMTKNQVSLSCAVKGFYPSDIAVEWESNGQPENNYKTTPPVLDSDGSFFLVSRLTVDKSRWQEGNVFSCSVMHEALHNHYTQKSLSLSLGKGGGGSGGGGSEVQLLESGGGLVQPGGSLRLSCAASGFTFGNYDMAWVRQAPGKRPEWVSSIDTGGDITHYADSVKGRFTISRDNAKNTLYLQMNSLRPEDTAVYWCATDEEYALGPNEFDYYGQGTLVTVSS
EC50: 800 nM
Max effect: 55%

B6: CIgG4F1A1(G4S)3 (Fc fusion)
chain 1: GPPCPPCPAPEFLGGPSVFLFPPKPKDTLMISRTPEVTCVVVDVSQEDPEVQFNWYVDGVEVHNAKTKPREEQFNSTYRVVSVLTVLHQDWLNGKEYKCKVSNKGLPSSIEKTISKAKGQPREPQVYTLPPCQEEMTKNQVSLWCLVKGFYPSDIAVEWESNGQPENNYKTTPPVLDSDGSFFLYSRLTVDKSRWQEGNVFSCSVMHEALHNHYTQKSLSLSLGKGGGGSGGGGSGGGGSDVQLQESGGGLVQAGGSLKLSCAASGGSLSRYDMGWFRQAPGKEREFVARISWSGTTKYYADAVKGRFAISRDNAKNTVYLQMNSLKPEDTAVYYCAAAFYGNRGYYDVNAYTSSGQGTQVTVS
chain 2: GPPCPPCPAPEFLGGPSVFLFPPKPKDTLMISRTPEVTCVVVDVSQEDPEVQFNWYVDGVEVHNAKTKPREEQFNSTYRVVSVLTVLHQDWLNGKEYKCKVSNKGLPSSIEKTISKAKGQPREPQVCTLPPSQEEMTKNQVSLSCAVKGFYPSDIAVEWESNGQPENNYKTTPPVLDSDGSFFLVSRLTVDKSRWQEGNVFSCSVMHEALHNHYTQKSLSLSLGKGGGGSGGGGSGGGGSEVQLLESGGGLVQPGGSLRLSCAASGFTFGNYDMAWVRQAPGKRPEWVSSIDTGGDITHYADSVKGRFTISRDNAKNTLYLQMNSLRPEDTAVYWCATDEEYALGPNEFDYYGQGTLVTVSS
EC50: 480 nM
Max effect: 65%

Second part, the binder after the results:

Max effect: 20%
B2: CIgG4F2A1(G4S)1 (Fc fusion)
chain 1: B1 chain 1 with T286D, K295E, K306Q, A328V, F330L, A341T, T343S, S344Y, S345W, Q350R
chain 2: B1 chain 2

Max effect: 0%
B4: CIgG4F1A1(RS) (Fc fusion)
chain 1: GPPCPPCPAPEFLGGPSVFLFPPKPKDTLMISRTPEVTCVVVDVSQEDPEVQFNWYVDGVEVHNAKTKPREEQFNSTYRVVSVLTVLHQDWLNGKEYKCKVSNKGLPSSIEKTISKAKGQPREPQVYTLPPCQEEMTKNQVSLWCLVKGFYPSDIAVEWESNGQPENNYKTTPPVLDSDGSFFLYSRLTVDKSRWQEGNVFSCSVMHEALHNHYTQKSLSLSLGKRSDVQLQESGGGLVQAGGSLKLSCAASGGSLSRYDMGWFRQAPGKEREFVARISWSGTTKYYADAVKGRFAISRDNAKNTVYLQMNSLKPEDTAVYYCAAAFYGNRGYYDVNAYTSSGQGTQVTVS
chain 2: GPPCPPCPAPEFLGGPSVFLFPPKPKDTLMISRTPEVTCVVVDVSQEDPEVQFNWYVDGVEVHNAKTKPREEQFNSTYRVVSVLTVLHQDWLNGKEYKCKVSNKGLPSSIEKTISKAKGQPREPQVCTLPPSQEEMTKNQVSLSCAVKGFYPSDIAVEWESNGQPENNYKTTPPVLDSDGSFFLVSRLTVDKSRWQEGNVFSCSVMHEALHNHYTQKSLSLSLGKRSEVQLLESGGGLVQPGGSLRLSCAASGFTFGNYDMAWVRQAPGKRPEWVSSIDTGGDITHYADSVKGRFTISRDNAKNTLYLQMNSLRPEDTAVYWCATDEEYALGPNEFDYYGQGTLVTVSS

Max effect: 10%
B5: CIgG4F2A1(RS) (Fc fusion)
chain 1: B4 chain 1 with T283D, K292E, K303Q, A325V, F327L, A338T, T340S, S341Y, S342W, Q347R
chain 2: B4 chain 2
